Test results published in patent US20260144882A1 (BIO THERA SOLUTIONS, published 2026).

Molecular target: T1, human Nectin-4 extracellular antigen hNectin-4-His (human, UniProt Q96NY8 32-349)
T1 construct: C-terminal 8xHis tag included
T1 sequence: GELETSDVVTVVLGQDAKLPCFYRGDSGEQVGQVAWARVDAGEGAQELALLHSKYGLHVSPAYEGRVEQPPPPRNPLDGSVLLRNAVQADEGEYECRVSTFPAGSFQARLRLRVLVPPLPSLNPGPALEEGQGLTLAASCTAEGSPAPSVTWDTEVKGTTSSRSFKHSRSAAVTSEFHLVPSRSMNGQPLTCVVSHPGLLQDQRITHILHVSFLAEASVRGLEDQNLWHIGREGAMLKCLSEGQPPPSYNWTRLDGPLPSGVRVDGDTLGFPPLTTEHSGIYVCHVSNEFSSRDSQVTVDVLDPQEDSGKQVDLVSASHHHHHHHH
Test: ELISA, phage scFv supernatant 1:50
Experimental: The supernatants were diluted 50-fold, and the binding OD values of the diluted supernatants to hNectin-4-His were measured by ELISA. The samples were serially 3-fold diluted, and the EC₅₀ titer for the binding of the supernatants to the antigen was measured by ELISA. […] The light chain variable region sequence is set forth in SEQ ID NO: 25. The OD value is the measurement of ELISA, and the EC₅₀ value denotes the EC₅₀ value of the binding activity titer of the supernatant to the antigen.

B1: 1G8-2B3 scFv (scFv, V domains shown)
VH: EVQLVESGGGLVQPGGSLRLSCAASGYNFTTSAMSWVRQAPGKGLEWVSRIYQDSSTTDYADSVKGRFTISRDNSKNTLYLQMNSLRAEDTAVYYCARQTEDRSYGYDLDYWGQGTLVTVSS
VL: DIQMTQSPSSLSASVGDRVTITCRASQGISSYLAWYQQKPGKAPKLLIYAASSLQSGVPSRFSGSGSGTDFTLTISSLQPEDFATYYCQQHYTTPPTFGQGTKVEIKR
notes: phage clone supernatant
B1 was tested, and the OD value was 1.57 OD.

B2: 1G8-2G3 scFv (scFv, V domains shown)
VH: EVQLVESGGGLVQPGGSLRLSCAASGFIFGGNAMSWVRQAPGKGLEWVSRISSDKGTTNYADSVKGRFTISRDNSKNTLYLQMNSLRAEDTAVYYCARQTEDRSYGYDLDYWGQGTLVTVSS
VL: DIQMTQSPSSLSASVGDRVTITCRASQGISSYLAWYQQKPGKAPKLLIYAASSLQSGVPSRFSGSGSGTDFTLTISSLQPEDFATYYCQQHYTTPPTFGQGTKVEIKR
notes: phage clone supernatant
B2 showed an OD value of 1.58 OD.

B3: 1G8-2G7 scFv (scFv, V domains shown)
VH: EVQLVESGGGLVQPGGSLRLSCAASGGTFYTYAMSWVRQAPGKGLEWVSRIYSTKGTPDYADSVKGRFTISRDNSKNTLYLQMNSLRAEDTAVYYCARQTEDRSYGYDLDYWGQGTLVTVSS
VL: DIQMTQSPSSLSASVGDRVTITCRASQGISSYLAWYQQKPGKAPKLLIYAASSLQSGVPSRFSGSGSGTDFTLTISSLQPEDFATYYCQQHYTTPPTFGQGTKVEIKR
notes: phage clone supernatant
Binder B3 has an OD value of 1.49 OD.

B4: 1G8-2F2 scFv (scFv, V domains shown)
VH: EVQLVESGGGLVQPGGSLRLSCAASGDIFGSYAMSWVRQAPGKGLEWVSRISSHGASRDYADSVKGRFTISRDNSKNTLYLQMNSLRAEDTAVYYCARQTEDRSYGYDLDYWGQGTLVTVSS
VL: DIQMTQSPSSLSASVGDRVTITCRASQGISSYLAWYQQKPGKAPKLLIYAASSLQSGVPSRFSGSGSGTDFTLTISSLQPEDFATYYCQQHYTTPPTFGQGTKVEIKR
notes: phage clone supernatant
With B4 the OD value was 1.6 OD.

B5: 1G8-2G4 scFv (scFv, V domains shown)
VH: EVQLVESGGGLVQPGGSLRLSCAASGFTFGGYSMSWVRQAPGKGLEWVSRISTDGAYTNYADSVKGRFTISRDNSKNTLYLQMNSLRAEDTAVYYCARQTEDRSYGYDLDYWGQGTLVTVSS
VL: DIQMTQSPSSLSASVGDRVTITCRASQGISSYLAWYQQKPGKAPKLLIYAASSLQSGVPSRFSGSGSGTDFTLTISSLQPEDFATYYCQQHYTTPPTFGQGTKVEIKR
notes: phage clone supernatant
Work on B5 yielded an OD value of 1.58 OD.

B6: 1G8-2G8 scFv (scFv, V domains shown)
VH: EVQLVESGGGLVQPGGSLRLSCAASGFNFTNYAMSWVRQAPGKGLEWVSRISTYGDTTHYADSVKGRFTISRDNSKNTLYLQMNSLRAEDTAVYYCARQTEDRSYGYDLDYWGQGTLVTVSS
VL: DIQMTQSPSSLSASVGDRVTITCRASQGISSYLAWYQQKPGKAPKLLIYAASSLQSGVPSRFSGSGSGTDFTLTISSLQPEDFATYYCQQHYTTPPTFGQGTKVEIKR
notes: phage clone supernatant
B6 was tested, and the OD value was 1.58 OD.

B7: 1G8-2F9 scFv (scFv, V domains shown)
VH: EVQLVESGGGLVQPGGSLRLSCAASGYSFSNYAMSWVRQAPGKGLEWVSRISAWGSTNNYADSVKGRFTISRDNSKNTLYLQMNSLRAEDTAVYYCARQTEDRSYGYDLDYWGQGTLVTVSS
VL: DIQMTQSPSSLSASVGDRVTITCRASQGISSYLAWYQQKPGKAPKLLIYAASSLQSGVPSRFSGSGSGTDFTLTISSLQPEDFATYYCQQHYTTPPTFGQGTKVEIKR
notes: phage clone supernatant
Binder B7 has an OD value of 1.56 OD.

B8: 1G8-2D11 scFv (scFv, V domains shown)
VH: EVQLVESGGGLVQPGGSLRLSCAASGYSFSGNAMSWVRQAPGKGLEWVSRIDGWGSYTDYADSVKGRFTISRDNSKNTLYLQMNSLRAEDTAVYYCARQTEDRSYGYDLDYWGQGTLVTVSS
VL: DIQMTQSPSSLSASVGDRVTITCRASQGISSYLAWYQQKPGKAPKLLIYAASSLQSGVPSRFSGSGSGTDFTLTISSLQPEDFATYYCQQHYTTPPTFGQGTKVEIKR
notes: phage clone supernatant
B8 showed an OD value of 1.53 OD.

B9: 1G8-2D6 scFv (scFv, V domains shown)
VH: EVQLVESGGGLVQPGGSLRLSCAASGFSFDGYAMSWVRQAPGKGLEWVSRISAHSWNKDYADSVKGRFTISRDNSKNTLYLQMNSLRAEDTAVYYCARQTEDRSYGYDLDYWGQGTLVTVSS
VL: DIQMTQSPSSLSASVGDRVTITCRASQGISSYLAWYQQKPGKAPKLLIYAASSLQSGVPSRFSGSGSGTDFTLTISSLQPEDFATYYCQQHYTTPPTFGQGTKVEIKR
notes: phage clone supernatant
For B9, the OD value was 1.63 OD.

B10: 1G8-2D9 scFv (scFv, V domains shown)
VH: EVQLVESGGGLVQPGGSLRLSCAASGDIFDGYSMSWVRQAPGKGLEWVSRIDTGGSVKNYADSVKGRFTISRDNSKNTLYLQMNSLRAEDTAVYYCARQTEDRSYGYDLDYWGQGTLVTVSS
VL: DIQMTQSPSSLSASVGDRVTITCRASQGISSYLAWYQQKPGKAPKLLIYAASSLQSGVPSRFSGSGSGTDFTLTISSLQPEDFATYYCQQHYTTPPTFGQGTKVEIKR
notes: phage clone supernatant
B10 gave an OD value of 1.54 OD.

B11: 1G8-2F11 scFv (scFv, V domains shown)
VH: EVQLVESGGGLVQPGGSLRLSCAASGYTFGSNAMSWVRQAPGKGLEWVSRISPDSSGISYADSVKGRFTISRDNSKNTLYLQMNSLRAEDTAVYYCARQTEDRSYGYDLDYWGQGTLVTVSS
VL: DIQMTQSPSSLSASVGDRVTITCRASQGISSYLAWYQQKPGKAPKLLIYAASSLQSGVPSRFSGSGSGTDFTLTISSLQPEDFATYYCQQHYTTPPTFGQGTKVEIKR
notes: phage clone supernatant
For B11, the OD value was 1.57 OD.

B12: 1G8-2B10 scFv (scFv, V domains shown)
VH: EVQLVESGGGLVQPGGSLRLSCAASGFSFTNNAMSWVRQAPGKGLEWVSRIDTIGGTSSYADSVKGRFTISRDNSKNTLYLQMNSLRAEDTAVYYCARQTEDRSYGYDLDYWGQGTLVTVSS
VL: DIQMTQSPSSLSASVGDRVTITCRASQGISSYLAWYQQKPGKAPKLLIYAASSLQSGVPSRFSGSGSGTDFTLTISSLQPEDFATYYCQQHYTTPPTFGQGTKVEIKR
notes: phage clone supernatant
Work on B12 yielded an OD value of 1.56 OD.

B13: 1G8-2B6 scFv (scFv, V domains shown)
VH: EVQLVESGGGLVQPGGSLRLSCAASGGSFGGYAMSWVRQAPGKGLEWVSRIYAYKSENDYADSVKGRFTISRDNSKNTLYLQMNSLRAEDTAVYYCARQTEDRSYGYDLDYWGQGTLVTVSS
VL: DIQMTQSPSSLSASVGDRVTITCRASQGISSYLAWYQQKPGKAPKLLIYAASSLQSGVPSRFSGSGSGTDFTLTISSLQPEDFATYYCQQHYTTPPTFGQGTKVEIKR
notes: phage clone supernatant
Binder B13 has an OD value of 1.56 OD.

B14: 1G8-2H1 scFv (scFv, V domains shown)
VH: EVQLVESGGGLVQPGGSLRLSCAASGYSFYSYAMSWVRQAPGKGLEWVSRISQGGGVTHYADSVKGRFTISRDNSKNTLYLQMNSLRAEDTAVYYCARQTEDRSYGYDLDYWGQGTLVTVSS
VL: DIQMTQSPSSLSASVGDRVTITCRASQGISSYLAWYQQKPGKAPKLLIYAASSLQSGVPSRFSGSGSGTDFTLTISSLQPEDFATYYCQQHYTTPPTFGQGTKVEIKR
notes: phage clone supernatant
With B14 the OD value was 1.58 OD.

B15: 1G8-2B5 scFv (scFv, V domains shown)
VH: EVQLVESGGGLVQPGGSLRLSCAASGYNFGNYAMSWVRQAPGKGLEWVSRIKSHDSTSHYADSVKGRFTISRDNSKNTLYLQMNSLRAEDTAVYYCARQTEDRSYGYDLDYWGQGTLVTVSS
VL: DIQMTQSPSSLSASVGDRVTITCRASQGISSYLAWYQQKPGKAPKLLIYAASSLQSGVPSRFSGSGSGTDFTLTISSLQPEDFATYYCQQHYTTPPTFGQGTKVEIKR
notes: phage clone supernatant
With B15 the OD value was 1.58 OD.

B16: 1G8-2C6 scFv (scFv, V domains shown)
VH: EVQLVESGGGLVQPGGSLRLSCAASGDNFSSYAMSWVRQAPGKGLEWVSRIYGSDSTPDYADSVKGRFTISRDNSKNTLYLQMNSLRAEDTAVYYCARQTEDRSYGYDLDYWGQGTLVTVSS
VL: DIQMTQSPSSLSASVGDRVTITCRASQGISSYLAWYQQKPGKAPKLLIYAASSLQSGVPSRFSGSGSGTDFTLTISSLQPEDFATYYCQQHYTTPPTFGQGTKVEIKR
notes: phage clone supernatant
B16 showed an OD value of 1.58 OD.

B17: 1G8-2E7 scFv (scFv, V domains shown)
VH: EVQLVESGGGLVQPGGSLRLSCAASGYTFGNYAMSWVRQAPGKGLEWVSRISPSTWNIDYADSVKGRFTISRDNSKNTLYLQMNSLRAEDTAVYYCARQTEDRSYGYDLDYWGQGTLVTVSS
VL: DIQMTQSPSSLSASVGDRVTITCRASQGISSYLAWYQQKPGKAPKLLIYAASSLQSGVPSRFSGSGSGTDFTLTISSLQPEDFATYYCQQHYTTPPTFGQGTKVEIKR
notes: phage clone supernatant
For B17, the OD value was 1.56 OD.

B18: 1G8-2G9 scFv (scFv, V domains shown)
VH: EVQLVESGGGLVQPGGSLRLSCAASGYIFTNYAMSWVRQAPGKGLEWVSRISQSGGTNDYADSVKGRFTISRDNSKNTLYLQMNSLRAEDTAVYYCARQTEDRSYGYDLDYWGQGTLVTVSS
VL: DIQMTQSPSSLSASVGDRVTITCRASQGISSYLAWYQQKPGKAPKLLIYAASSLQSGVPSRFSGSGSGTDFTLTISSLQPEDFATYYCQQHYTTPPTFGQGTKVEIKR
notes: phage clone supernatant
With B18 the OD value was 1.54 OD.

B19: 1G8-2D7 scFv (scFv, V domains shown)
VH: EVQLVESGGGLVQPGGSLRLSCAASGDSFTSYAMSWVRQAPGKGLEWVSRISADSASPSYADSVKGRFTISRDNSKNTLYLQMNSLRAEDTAVYYCARQTEDRSYGYDLDYWGQGTLVTVSS
VL: DIQMTQSPSSLSASVGDRVTITCRASQGISSYLAWYQQKPGKAPKLLIYAASSLQSGVPSRFSGSGSGTDFTLTISSLQPEDFATYYCQQHYTTPPTFGQGTKVEIKR
notes: phage clone supernatant
B19 showed an OD value of 1.54 OD.

B20: 1G8-2C7 scFv (scFv, V domains shown)
VH: EVQLVESGGGLVQPGGSLRLSCAASGYSFTNFAMSWVRQAPGKGLEWVSRISQDGGNKNYADSVKGRFTISRDNSKNTLYLQMNSLRAEDTAVYYCARQTEDRSYGYDLDYWGQGTLVTVSS
VL: DIQMTQSPSSLSASVGDRVTITCRASQGISSYLAWYQQKPGKAPKLLIYAASSLQSGVPSRFSGSGSGTDFTLTISSLQPEDFATYYCQQHYTTPPTFGQGTKVEIKR
notes: phage clone supernatant
B20 gave an OD value of 1.58 OD.
